Literature values as cited in publication PMC2773841.

Target: DnaK (Escherichia coli) (UniProt P0A6Y8)
Sequence (P0A6Y8 2-638): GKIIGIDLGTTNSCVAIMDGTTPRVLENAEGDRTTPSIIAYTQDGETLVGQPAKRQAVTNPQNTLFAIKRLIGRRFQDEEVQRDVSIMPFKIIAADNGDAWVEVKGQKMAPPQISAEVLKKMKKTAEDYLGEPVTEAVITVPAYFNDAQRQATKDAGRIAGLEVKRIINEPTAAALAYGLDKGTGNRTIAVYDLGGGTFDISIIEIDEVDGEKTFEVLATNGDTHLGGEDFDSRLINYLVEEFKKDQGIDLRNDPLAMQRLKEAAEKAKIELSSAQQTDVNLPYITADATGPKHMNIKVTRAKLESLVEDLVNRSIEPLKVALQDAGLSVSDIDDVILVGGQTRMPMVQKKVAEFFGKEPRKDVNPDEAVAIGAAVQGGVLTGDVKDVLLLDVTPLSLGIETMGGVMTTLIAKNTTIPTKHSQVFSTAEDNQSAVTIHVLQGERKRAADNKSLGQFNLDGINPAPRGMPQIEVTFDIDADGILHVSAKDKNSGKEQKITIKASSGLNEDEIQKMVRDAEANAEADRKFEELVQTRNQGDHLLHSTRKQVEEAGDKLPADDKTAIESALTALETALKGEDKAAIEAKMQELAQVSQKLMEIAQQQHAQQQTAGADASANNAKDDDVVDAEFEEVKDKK

GrpE, sequence (P09372 whole entry): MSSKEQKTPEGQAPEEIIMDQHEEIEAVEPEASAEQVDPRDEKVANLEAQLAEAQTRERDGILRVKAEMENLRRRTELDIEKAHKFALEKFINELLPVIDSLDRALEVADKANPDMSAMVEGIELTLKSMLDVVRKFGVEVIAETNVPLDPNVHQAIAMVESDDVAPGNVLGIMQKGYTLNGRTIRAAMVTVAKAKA

Kd: 1 nM
Substance: GrpE (from UniProt P09372)
